In paper PMC9295147 (2022):
Changes are numbered by the printed parent chain.

T1: dT14-3-3_biPKA, unphosphorylated (Tobacco | )
T1 chain: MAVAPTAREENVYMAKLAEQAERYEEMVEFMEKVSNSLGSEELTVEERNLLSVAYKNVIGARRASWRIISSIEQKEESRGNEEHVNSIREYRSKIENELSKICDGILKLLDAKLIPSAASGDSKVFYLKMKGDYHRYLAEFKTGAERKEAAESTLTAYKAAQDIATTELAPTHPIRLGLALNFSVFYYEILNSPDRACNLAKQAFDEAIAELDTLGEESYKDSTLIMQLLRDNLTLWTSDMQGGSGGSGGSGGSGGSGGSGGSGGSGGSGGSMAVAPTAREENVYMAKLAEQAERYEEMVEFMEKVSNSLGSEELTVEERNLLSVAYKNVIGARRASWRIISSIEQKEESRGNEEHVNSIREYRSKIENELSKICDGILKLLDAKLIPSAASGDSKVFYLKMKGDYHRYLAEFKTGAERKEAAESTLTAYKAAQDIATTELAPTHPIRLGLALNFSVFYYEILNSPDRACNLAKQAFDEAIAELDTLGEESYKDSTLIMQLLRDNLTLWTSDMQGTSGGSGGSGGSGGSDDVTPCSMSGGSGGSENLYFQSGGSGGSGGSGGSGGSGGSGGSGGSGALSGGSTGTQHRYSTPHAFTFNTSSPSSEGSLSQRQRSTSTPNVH

T2: dT14-3-3_PKB/CHK1, unphosphorylated (Tobacco | )
T2 chain: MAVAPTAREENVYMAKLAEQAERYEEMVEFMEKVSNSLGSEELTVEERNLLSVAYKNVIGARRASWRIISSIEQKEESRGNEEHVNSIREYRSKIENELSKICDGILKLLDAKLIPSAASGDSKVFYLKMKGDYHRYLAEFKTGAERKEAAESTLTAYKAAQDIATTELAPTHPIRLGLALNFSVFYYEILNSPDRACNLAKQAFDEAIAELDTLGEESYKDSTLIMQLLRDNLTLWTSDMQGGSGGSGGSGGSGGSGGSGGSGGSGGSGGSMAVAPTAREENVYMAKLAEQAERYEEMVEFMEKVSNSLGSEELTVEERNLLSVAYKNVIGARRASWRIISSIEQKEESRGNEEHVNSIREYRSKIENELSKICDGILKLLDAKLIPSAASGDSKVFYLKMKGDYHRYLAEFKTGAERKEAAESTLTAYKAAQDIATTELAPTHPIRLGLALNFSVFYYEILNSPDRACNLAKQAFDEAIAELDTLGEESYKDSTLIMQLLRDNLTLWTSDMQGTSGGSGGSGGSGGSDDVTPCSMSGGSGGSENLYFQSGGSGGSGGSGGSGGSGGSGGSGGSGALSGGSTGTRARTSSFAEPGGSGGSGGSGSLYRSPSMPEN

T3: dimeric Tobacco 14-3-3 scaffold (Tobacco)
T3 chain: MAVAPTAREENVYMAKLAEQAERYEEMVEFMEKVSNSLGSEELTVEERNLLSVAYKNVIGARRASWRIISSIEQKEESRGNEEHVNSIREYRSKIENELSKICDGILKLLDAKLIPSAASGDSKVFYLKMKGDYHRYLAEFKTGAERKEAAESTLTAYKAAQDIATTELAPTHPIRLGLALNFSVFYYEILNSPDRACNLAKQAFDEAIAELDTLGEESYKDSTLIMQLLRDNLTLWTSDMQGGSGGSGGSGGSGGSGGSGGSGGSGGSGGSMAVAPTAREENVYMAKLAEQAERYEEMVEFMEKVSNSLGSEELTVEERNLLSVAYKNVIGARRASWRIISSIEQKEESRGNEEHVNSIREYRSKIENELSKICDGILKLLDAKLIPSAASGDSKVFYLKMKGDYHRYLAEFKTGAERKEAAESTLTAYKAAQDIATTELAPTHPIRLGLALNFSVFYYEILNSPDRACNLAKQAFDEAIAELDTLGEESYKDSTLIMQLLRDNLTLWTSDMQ

T4: dT14-3-3_biCHK1, unphosphorylated (Tobacco | )
T4 chain: T2 chain with R586L, A587Y, T589S, S590P, F592M, A593P, P595N

T5: dT14-3-3_PKA/CHK1, unphosphorylated (Tobacco | )
T5 chain: T2 chain with A587Q, T589S, S590T, F592T, A593P, E594N, P595V

T6: dT14-3-3_biPKB, unphosphorylated (Tobacco | )
T6 chain: T2 chain with L607R, Y608A, S610T, P611S, M613F, P614A, N616P

T7: dT14-3-3_PKA/PKB, unphosphorylated (Tobacco | )
T7 chain: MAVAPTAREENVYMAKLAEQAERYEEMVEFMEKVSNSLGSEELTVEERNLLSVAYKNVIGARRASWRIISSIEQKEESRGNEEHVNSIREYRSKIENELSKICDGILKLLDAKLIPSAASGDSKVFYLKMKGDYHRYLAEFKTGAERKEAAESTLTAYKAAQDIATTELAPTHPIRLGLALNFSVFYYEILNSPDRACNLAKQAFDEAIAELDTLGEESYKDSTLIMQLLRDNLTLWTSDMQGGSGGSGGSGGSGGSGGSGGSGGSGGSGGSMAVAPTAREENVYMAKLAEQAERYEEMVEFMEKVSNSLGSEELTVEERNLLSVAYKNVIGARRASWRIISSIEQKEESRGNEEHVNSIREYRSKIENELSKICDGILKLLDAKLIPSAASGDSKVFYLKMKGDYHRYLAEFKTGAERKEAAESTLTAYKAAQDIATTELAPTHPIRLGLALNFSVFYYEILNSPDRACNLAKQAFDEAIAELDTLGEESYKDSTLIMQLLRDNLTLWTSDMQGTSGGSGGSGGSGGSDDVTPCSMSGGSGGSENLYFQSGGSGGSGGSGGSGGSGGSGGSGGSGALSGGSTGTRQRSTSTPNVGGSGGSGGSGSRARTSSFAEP

T8: mExoS peptide (C-terminal region of exoenzyme S)
T8 chain: QGLLDALDLAS

B1: dT14-3-3_biPKB, phosphorylated by PKB (protein)
chain: T2 chain with L607R, Y608A, S610T, P611S, M613F, P614A, N616P
modifications: not checked
B2: dT14-3-3_biPKA, phosphorylated by PKA (protein)
chain: T1 chain
modifications: not checked

Key:
[1] = target: T1, dT14-3-3_biPKA, unphosphorylated; experiment: FP
[2] = target: T2, dT14-3-3_PKB/CHK1, unphosphorylated; experiment: FP
[3] = target: T3, dimeric Tobacco 14-3-3 scaffold; experiment: FP
[4] = target: T4, dT14-3-3_biCHK1, unphosphorylated; experiment: FP
[5] = target: T5, dT14-3-3_PKA/CHK1, unphosphorylated; experiment: FP
[6] = target: T6, dT14-3-3_biPKB, unphosphorylated; experiment: FP
[7] = target: T7, dT14-3-3_PKA/PKB, unphosphorylated; experiment: FP
[8] = target: T8, mExoS peptide (C-terminal region of …); experiment: fluorescence polarisation

Binder | Kd [1] [µM] | Kd [2] [µM] | Kd [3] [µM] | Kd [4] [µM] | Kd [5] [µM] | Kd [6] [µM] | Kd [7] [µM] | fold decrease in binding affinity relative to the unphosphorylated state [8] [fold]
QGLLDALDLAS [mExoS peptide (C-terminal region of exoenzyme S)] | 5.77 | 6.62 | 9.69 | 7.57 | 6.64 | 6.91 | 6.43 | 
B1 |  |  |  |  |  |  |  | 10
B2 |  |  |  |  |  |  |  | 35
